# B1: HDAC4 dominant negative variant (H863L): HDAC4 variant with H863L mutation, amino acid sequence SEQ ID NO:6, expressed from plasmid (protein, listed as Homo sapiens)
# chain: MSSQSHPDGLSGRDQPVELLNPARVNHMPSTVDVATALPLQVAPSAVPMDLRLDHQFSLPVAEPALREQQLQQELLALKQKQQIQRQILIAEFQRQHEQLSRQHEAQLHEHIKQQQEMLAMKHQQELLEHQRKLERHRQEQELEKQHREQKLQQLKNKEKGKESAVASTEVKMKLQEFVLNKKKALAHRNLNHCISSDPRYWYGKTQHSSLDQSSPPQSGVSTSYNHPVLGMYDAKDDFPLRKTASEPNLKLRSRLKQKVAERRSSPLLRRKDGPVVTALKKRPLDVTDSACSSAPGSGPSSPNNSSGSVSAENGIAPAVPSIPAETSLAHRLVAREGSAAPLPLYTSPSLPNITLGLPATGPSAGTAGQQDTERLTLPALQQRLSLFPGTHLTPYLSTSPLERDGGAAHSPLLQHMVLLEQPPAQAPLVTGLGALPLHAQSLVGADRVSPSIHKLRQHRPLGRTQSAPLPQNAQALQHLVIQQQHQQFLEKHKQQFQQQQLQMNKIIPKPSEPARQPESHPEETEEELREHQALLDEPYLDRLPGQKEAHAQAGVQVKQEPIESDEEEAEPPREVEPGQRQPSEQELLFRQQALLLEQQRIHQLRNYQASMEAAGIPVSFGGHRPLSRAQSSPASATFPVSVQEPPTKPRFTTGLVYDTLMLKHQCTCGSSSSHPEHAGRIQSIWSRLQETGLRGKCECIRGRKATLEELQTVHSEAHTLLYGTNPLNRQKLDSKKLLGSLASVFVRLPCGGVGVDSDTIWNEVHSAGAARLAVGCVVELVFKVATGELKNGFAVVRPPGHHAEESTPMGFCYFNSVAVAAKLLQQRLSVSKILIVDWDVHHGNGTQQAFYSDPSVLYMSLLRYDDGNFFPGSGAPDEVGTGPGVGFNVNMAFTGGLDPPMGDAEYLAAFRTVVMPIASEFAPDVVLVSSGFDAVEGHPTPLGGYNLSARCFGYLTKQLMGLAGGRIVLALEGGHDLTAICDASEACVSALLGNELDPLPEKVLQQRPNANAVRSMEKVMEIHSKYWRCLQRTTSTAGRSLIEAQTCENEEAETVTAMASLSVGVKPAEKRPDEEPMEEEPPL
# modifications: Dominant negative mutant (H863L) of human histone deacetylase-4 (HDAC4) gene
# Legend:
# [1] = system: Jurkat cells; assay: Cell proliferation, Cell Counting Kit-8; format: cell-based, human; conditions: 10 μg expression plasmid; Jurkat cells versus HEL cells and 293 cells
# Experimental: 10 μg of a plasmid for the expression of wild-type HDAC4 and the HDAC4 dominant negative variant (H863L) prepared in Example 6 was transfected to Jurkat cells, HEL cells and 293 cells.
# 1×10^7 Jurkat cells (ATCC, TIB-152) were transformed by the electroporation method (BIO-RAD, Gene Pulser II, voltage 300 V, charge 975 μF, 400 μL). After transformation, 2.5 mL of RPMI 1640 containing 10% FBS (MOREGATE) (10% FBS RPMI 1640) was added, and this mixture was dispensed to a 96-well white plate in a ratio of 50 μL/well. After cultivation under conditions of 37° C., 5% CO2 and saturated humidity for 5 hours, a liquid mixture of Phorbol 12-Myristate 13-Acetate (PMA, SIGMA), Ionomycin (SIGMA) and Anti-CD28 antibody (Pharmingen) in 10% FBS RPMI 1640 was added at 50 μL/well (the final concentrations were 50 ng/mL, 1 μg/mL and 75 ng/mL, respectively) to stimulate the Jurkat cells. After cultivation under conditions of 37° C., 5% CO2 and saturated humidity for 4 hours, the number of cell was confirmed using the Cell Counting Kit-8 (DOJIN) 8.75×10^6 HEL cells (accession number JCRBOO62, JCRB) were transformed by the electroporation method (BIO-RAD, Gene Pulser II, voltage 1750 V, charge 10 μF, 365 μL). After transformation, 2 mL of 10% FBS RPMI 1640 was added, and this mixture was dispensed to a 96-well white plate in a ratio of 50 μL/well. […]
# [2] = molecular target: T1, N-CoR(RD3) (Homo sapiens, UniProt O75376); assay: Two-hybrid detection system for interaction of HDAC4 and N-CoR; format: cell-based; conditions: Jurkat cells; 22 hours after transfection
# T1 construct: expressed in transfected cells; host or cells: Jurkat cells (ATCC, TIB-152)
# T1 sequence (O75376 1005-1498): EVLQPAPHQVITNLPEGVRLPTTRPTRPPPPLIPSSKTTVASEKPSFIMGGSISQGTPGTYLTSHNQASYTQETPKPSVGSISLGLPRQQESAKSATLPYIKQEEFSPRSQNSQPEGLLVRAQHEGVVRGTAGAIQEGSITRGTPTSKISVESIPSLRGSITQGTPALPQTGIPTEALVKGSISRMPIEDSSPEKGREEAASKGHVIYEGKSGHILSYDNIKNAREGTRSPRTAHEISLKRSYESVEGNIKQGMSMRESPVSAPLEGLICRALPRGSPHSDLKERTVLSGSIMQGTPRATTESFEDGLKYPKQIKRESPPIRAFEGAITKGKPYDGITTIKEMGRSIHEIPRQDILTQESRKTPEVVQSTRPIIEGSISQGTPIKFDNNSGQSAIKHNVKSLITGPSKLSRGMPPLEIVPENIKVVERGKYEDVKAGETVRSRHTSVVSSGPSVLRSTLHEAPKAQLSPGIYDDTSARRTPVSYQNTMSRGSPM
# Experimental: First, from the literature information in Mol. Cell, 2002, Vol. 9, p.45-57, the site corresponding to the RD3 sequence of human N-COR was determined (1005-1498a.a.). The human N-COR CDS base sequence was obtained from GenBank accession number AF044209, and human N-CoR(RD3) cDNA was amplified from human-lung-derived cDNA by the PCR method. The primers used were RD3-Bam-FW (SEQ ID NO:82) and RD3-Not-RV (SEQ ID NO:83) below. For the base sequence of human N-CoR(RD3), see SEQ ID NO:21; for the amino acid sequence encoded by the base sequence of human N-CoR (RD3), see SEQ ID NO:22. […]
# Subsequently, 10 μg of pG5-Luc (Promega), 3 μg of BND and 3 μg of pACT, or 10 μg of pG5-Luc, 3 μg of pBND-N-CoR (RD3) and 3 μg of pACT-HDAC4, or 10 μg of pG5-Luc, 3 μg of pBND-N-CoR(RD3) and 3 μg of pACT-HDAC4 (H863L), were mixed respectively, and each mixture was transfected to 1×10^7 Jurkat cells (ATCC, TIB-152) by the electroporation method (BIO-RAD, Gene Pulser II, voltage 300 V, charge 975 μF, 400 μL). Twenty-two hours after transfection, luciferase activity in the cells was measured according to the manual of the Bright-Glo Luciferase Assay System (Promega) using a multi-label counter (1420 MULTILABEL COUNTER ARVO SX, WALLAC).
molecule,measurement,setting,value
B1,cell proliferation (number of cells),[1],cell proliferation inhibition specific for Jurkat cells
same,"interaction with N-CoR(RD3), GAL4 transcription activation (luciferase)",[2],did not interact with N-CoR(RD3)

# Reference: patent publication US20070123452A1, “Method of selecting novel immunosuppressant” (Astellas Pharma Inc., priority 2002, published 2007)
